In IntAct's records for PubMed 29039417:

B1: Protein PTHB1 (Homo sapiens), Q3SYG4 (parent)
chain: MSLFKARDWWSTILGDKEEFDQGCLCLANVDNSGNGQDKIIVGSFMGYLRIFSPHPAKTGDGAQAEDLLLEVDLRDPVLQVEVGKFVSGTEMLHLAVLHSRKLCVYSVSGTLGNVEHGNQCQMKLMYEHNLQRTACNMTYGSFGGVKGRDLICIQSMDGMLMVFEQESYAFGRFLPGFLLPGPLAYSSRTDSFLTVSSCQQVESYKYQVLAFATDADKRQETEQQKLGSGKRLVVDWTLNIGEQALDICIVSFNQSASSVFVLGERNFFCLKDNGQIRFMKKLDWSPSCFLPYCSVSEGTINTLIGNHNNMLHIYQDVTLKWATQLPHIPVAVRVGCLHDLKGVIVTLSDDGHLQCSYLGTDPSLFQAPNVQSRELNYDELDVEMKELQKIIKDVNKSQGVWPMTEREDDLNVSVVVSPNFDSVSQATDVEVGTDLVPSVTVKVTLQNRVILQKAKLSVYVQPPLELTCDQFTFEFMTPDLTRTVSFSVYLKRSYTPSELEGNAVVSYSRPTDRNPDGIPRVIQCKFRLPLKLICLPGQPSKTASHKITIDTNKSPVSLLSLFPGFASQSDDDQVNVMGFHFLGGARITVLASKTSQRYRIQSEQFEDLWLITNELILRLQEYFEKQGVKDFACSFSGSIPLQEYFELIDHHFELRINGEKLEELLSERAVQFRAIQRRLLARFKDKTPAPLQHLDTLLDGTYKQVIALADAVEENQGNLFQSFTRLKSATHLVILLIALWQKLSADQVAILEAAFLPLQEDTQELGWEETVDAAISHLLKTCLSKSSKEQALNLNSQLNIPKDTSQLKKHITLLCDRLSKGGRLCLSTDAAAPQTMVMPGGCTTIPESDLEERSVEQDSTELFTNHRHLTAETPRPEVSPLQGVSE
partner: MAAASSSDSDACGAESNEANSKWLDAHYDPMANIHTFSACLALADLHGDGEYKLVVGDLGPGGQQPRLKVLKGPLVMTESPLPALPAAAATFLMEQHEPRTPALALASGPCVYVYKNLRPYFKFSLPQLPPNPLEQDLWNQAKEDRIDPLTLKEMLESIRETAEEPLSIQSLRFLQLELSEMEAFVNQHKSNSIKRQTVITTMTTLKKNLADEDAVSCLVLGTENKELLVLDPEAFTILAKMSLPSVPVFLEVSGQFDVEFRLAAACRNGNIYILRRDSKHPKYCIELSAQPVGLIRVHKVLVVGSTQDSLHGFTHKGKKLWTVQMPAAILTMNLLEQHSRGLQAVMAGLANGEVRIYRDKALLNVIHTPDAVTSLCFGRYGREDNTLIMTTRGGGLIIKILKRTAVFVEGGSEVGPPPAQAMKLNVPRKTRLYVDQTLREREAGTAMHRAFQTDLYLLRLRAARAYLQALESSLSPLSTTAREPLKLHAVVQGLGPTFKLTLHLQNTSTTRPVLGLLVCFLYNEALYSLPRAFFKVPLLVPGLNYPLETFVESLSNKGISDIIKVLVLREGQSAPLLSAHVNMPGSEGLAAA

Variants of: B1
Conditions: with bbs1_human BBS1, Q8NFJ9

| Variant | effect of a mutation on the interaction |
| --- | --- |
| T688E | with no effect |
| D517A | with no effect |
| L695K | with no effect |
| K454E | with no effect |
| V485E | with no effect |
| N420K | with no effect |
| N420E | with no effect |
| F724A | with no effect |
| G565S | disrupting interaction strength |
| G565K | with no effect |
| G585K | with no effect |
| L560K | with no effect |
| W610E | with no effect |
| H694Y | disrupting interaction strength |
| D573K | with no effect |
| S545E | with no effect |
| S555A | with no effect |
| S555K | with no effect |
| Q705M | disrupting interaction strength |
| V505K | with no effect |
| D631E | with no effect |
| L709E | with no effect |
| L709K | with no effect |
| R407K | with no effect |
| F721S | disrupting interaction strength |

| Variant | effect of a mutation on the interaction |
| --- | --- |
| F721A | with no effect |
| I657A | with no effect |
| V506K | with no effect |
| Q602E | with no effect |
| E431A | with no effect |
| T595E | with no effect |
| L692A | with no effect |
| V459E | disrupting interaction strength |
| V459A | with no effect |
| F624A | with no effect |
| Q672E | with no effect |
| N658E | with no effect |
| V629E | with no effect |
| V629A | with no effect |
| S439K | with no effect |
| K532A | with no effect |
| T549E | with no effect |
| T549K | with no effect |
| D711E | with no effect |
| G718K | with no effect |
| F474K | with no effect |
| T434A | with no effect |
| Q471A | with no effect |
| P497E | with no effect |
| P497K | with no effect |

| Variant | effect of a mutation on the interaction |
| --- | --- |
| D480A | with no effect |
| R674A | with no effect |
| L681E | with no effect |
| V415E | with no effect |
| G701R | disrupting interaction strength |
| Q605K | with no effect |
| L666K | with no effect |
| L609K | with no effect |
| L531A | with no effect |
| Q524E | with no effect |
| G638E | with no effect |
| Y645E | with no effect |
| S561A | with no effect |
| I519E | with no effect |
| Y623K | with no effect |
| S486A | with no effect |
| E622K | disrupting interaction strength |
| R678A | with no effect |
| D470E | with no effect |
| R483A | with no effect |
| Q717E | with no effect |
| T484A | with no effect |
| I649E | with no effect |
| A455E | with no effect |
| G433A | with no effect |

| Variant | effect of a mutation on the interaction |
| --- | --- |
| S558K | with no effect |
| D696K | with no effect |
| S667K | with no effect |
| D571E | with no effect |
| Q453A | with no effect |
| S568K | with no effect |
| Q426E | with no effect |
| F472A | with no effect |
| D686E | with no effect |
| I676A | with no effect |
| T482K | with no effect |
| P556A | with no effect |
| K526E | with no effect |
| R514K | with no effect |
| V557K | with no effect |
| I523E | with no effect |
| V577E | with no effect |
| V437E | with no effect |
| V437A | with no effect |
| N576A | with no effect |
| G659A | with no effect |
| F636K | with no effect |
| S425K | with no effect |
| L536E | with no effect |
| R510A | with no effect |

| Variant | effect of a mutation on the interaction |
| --- | --- |
| S723K | with no effect |
| I548K | with no effect |
| I548E | with no effect |
| Q627E | with no effect |
| Q627A | with no effect |
| N553K | with no effect |
| L562E | with no effect |
| Y599K | with no effect |
| Y599E | with no effect |
| Q693K | with no effect |
| I640A | with no effect |
| N719A | with no effect |
| N719K | with no effect |
| A710E | with no effect |
| A592K | with no effect |
| P564K | with no effect |
| D422E | with no effect |
| D513A | with no effect |
| H651K | with no effect |
| P516E | with no effect |
| L616F | disrupting interaction strength |

Continued, values first:

| effect of a mutation on the interaction | Variant |
| --- | --- |
| with no effect | C816E |
| with no effect | V749A |
| with no effect | G884K |
| with no effect | T829E |
| with no effect | H869K |
| with no effect | K786E |
| with no effect | L740A |
| with no effect | T782E |
| with no effect | P847E |
| with no effect | S886K |
| with no effect | A872K |
| with no effect | A872E |
| with no effect | I776K |
| with no effect | E765K |
| with no effect | K789E |
| with no effect | Q883A |
| with no effect | P881K |
| with no effect | V885K |
| with no effect | L793K |
| with no effect | P758A |
| with no effect | Q764K |

| effect of a mutation on the interaction | Variant |
| --- | --- |
| with no effect | A832E |
| with no effect | T805K |
| with no effect | D850K |
| with no effect | D850A |
| with no effect | T865A |
| with no effect | T763A |
| with no effect | I801A |
| with no effect | E753A |
| with no effect | A831E |
| with no effect | T874E |
| with no effect | R876K |
| with no effect | E790A |
| with no effect | E790K |
| with no effect | Q742K |
| with no effect | L736E |
| with no effect | S880A |
| with no effect | D804E |
| with no effect | D804A |
| with no effect | P840A |
| with no effect | D859E |
| with no effect | E848K |

| effect of a mutation on the interaction | Variant |
| --- | --- |
| with no effect | S849A |
| with no effect | L766E |
| with no effect | T836E |
| disrupting interaction strength | D817N |
| with no effect | A833K |
| with no effect | L759E |
| with no effect | F756A |
| with no effect | L727E |
| with no effect | S729E |
| with no effect | S729K |
| with no effect | G767E |
| with no effect | E853K |
| with no effect | E853A |
| with no effect | A750K |
| with no effect | F864E |
| with no effect | V734K |
| with no effect | P875A |
| with no effect | R824A |
| with no effect | P877A |
| with no effect | L737K |
